Assay [1] has as its target RC1 Env trimer (BG505-derived SOSIP.664 soluble gp140) (HIV-1 BG505). Description: SPR (Biacore T200), SOSIP captured on 8ANC195 IgG, Fab injected, equilibrium fit 1:1. (In SPR one partner is held on a chip, and binding of the other changes the refractive index at the surface.)
Assay [2] deals with 11MUTB Env trimer (SOSIP.664) derived from wtBG505 (HIV-1 BG505). The assay is described as above.

Consider “Fab of the common inferred germline (iGL) precursor of PGT121 and 10-1074”, for which the dissociation constant (Kd) in assay [1] and in assay [2] was 50 µM each time.
